Source: PMC5341072, “Activity screening of environmental metagenomic libraries reveals novel carboxylesterase families” (Scientific Reports, 2017)

Legend:
Type in all cases: biochemical, uncultured organism
[1] = substrate: CCC(=O)Oc1cccc2ccccc12; test: spectrophotometric ester hydrolysis, Michaelis-Menten or Hill fit; conditions: metal-dependent; 0.1 mM MnCl2 stated for the Figure 4 and 7 assays
Text: (§1) spectrophotometric ester hydrolysis, Michaelis-Menten or Hill fit on MGS0169

[2] = substrate: CC(=O)Oc1cccc2ccccc12; test: as above; conditions: metal-dependent; 0.1 mM MnCl2 stated for the Figure 4 and 7 assays
Text: as §1

[3] = substrate: CC(=O)Oc1ccc([N+](=O)[O-])cc1; test: as above; conditions: metal-dependent; 0.1 mM MnCl2 stated for the Figure 4 and 7 assays
Text: as §1

[4] = substrate: O=C1Nc2ccccc2C1=O; test: amidohydrolase activity, Michaelis-Menten or Hill fit; conditions: metal-dependent amidohydrolase activity
Text: amidohydrolase activity, Michaelis-Menten or Hill fit on MGS0169

B1: MGS0169 (uncultured organism) (protein)
chain: MAHAEGPALHPHEKLNNWGKWGDDDQRGAANYITPERIVAAARLIQTGKTFSLAIPIDSNGPVFPPRLPPHHTMEITGADYVADPGASPFGKSPIRFADDYIYMPLQGSTQWDALSHGWYGESLYNGVPEAAIRSSGAGGATKLGIENVKTSFLGRGVLVDIVRFKGGSLPEGYTITRADLEGALAKQKSKLLPGDILVIRTGLVESWYDLDPVGRASFFLNPMTGIGSDTVPWIHEQRLAGVAADNIALERVPHERAPELALPVHGNLLRDLGVYIGEIWWLEELAKDCAQDGRYEFFLAAQPLYIPGAVGSPLNPIAVK
notes: N-terminal 6His tag (modified pET15b), E. coli BL21(DE3), Ni-NTA purified; predicted 37 kDa, tetramer; crystal construct 21-341 aa
B1 showed a Km [1] of 420 ± 120 µM, a kcat [1] of 14.7 ± 1.4 s⁻¹ and a kcat/Km [1] of 40000 M⁻¹ s⁻¹. The Km [2] was 490 ± 110 µM, the kcat [2] was 14.9 ± 1.2 s⁻¹ and the kcat/Km [2] was 30000 M⁻¹ s⁻¹. It also gave a Km [3] of 400 ± 290 µM, a kcat [3] of 71.2 ± 1.7 s⁻¹ and a kcat/Km [3] of 180000 M⁻¹ s⁻¹. The Km [4] was 19700 ± 4200 µM, the kcat [4] was 1.9 ± 0.2 s⁻¹ and the kcat/Km [4] was 100 M⁻¹ s⁻¹.
